In PMC5282575, “The crystal structure of the Sgt1-Skp1 complex: the link between Hsp90 and both SCF E3 ubiquitin ligases and kinetochores” (Scientific Reports, 2017):
Substitutions are numbered along the chain they refer to. One block for each molecule: values may come before it.

B1: Sgt1 TPR domain construct (Sgt1TPR, residues 1-150) (domain or fragment, S. cerevisiae, UniProt Q08446 1-150, looked up)
chain: MPVEKDLKTAYKALYDEKEPLKALHLYDEILKGSPTNLTALIFKAACLEKLYFGFSDWHSDATMENAKELLDKALMTAEGRGDRSKIGLVNFRYFVHFFNIKDYELAQSYFKKAKNLGYVDDTLPLWEDRLETKLNKKNKKQKDSTNKHT
notes: Sgt1, S. cerevisiae, TPR domain, residues 1-150, untagged, cloned in MCSII of pColA-Duet; Treated as a dimer in the ITC fit; forms concentration-dependent trimers; three copies in the asymmetric unit; SeMet-Sgt1TPR was used for the SAD data set; source: E. coli T7 Express LysY/Iq, purified (cation exchange, gel filtration)
B2: full-length Sgt1 (untagged), Saccharomyces cerevisiae (natural protein, S. cerevisiae, UniProt Q08446 1-395, looked up)
chain: MPVEKDLKTAYKALYDEKEPLKALHLYDEILKGSPTNLTALIFKAACLEKLYFGFSDWHSDATMENAKELLDKALMTAEGRGDRSKIGLVNFRYFVHFFNIKDYELAQSYFKKAKNLGYVDDTLPLWEDRLETKLNKKNKKQKDSTNKHTIKPVESIENRGDNNSSHSPISPLKIETAPQESPKFKIDWYQSSTSVTISLFTVNLPESKEQVNIYISPNDRRTLSISYQVPKSGSEFQYNAKLSHEVDPKAVSLKIFPKKLEITLSKIDSTQWKKLEEDILTESSRLSDEGKNSDSATRLLSAETASKERLSYPSSSKKKIDWSKLDIDEEADEEAGSADSFFQKLYAGADPDTKRAMMKSFIESNGTALSTDWEDVSKGTVKTSPPEGMEPKHW
notes: Sgt1, S. cerevisiae, full length, untagged, cloned in MCSII of pColA-Duet; Dimer at working concentrations by SV-AUC and native MS, with minor monomer and trimer; also called Sgt1 FL; wt; source: E. coli BL21 Star (DE3), purified (cation exchange, gel filtration)
B3: His6-tagged full-length Sgt1 D61R (natural protein, S. cerevisiae, UniProt Q08446 1-395, looked up)
chain: B2 chain with D61R
notes: Sgt1, S. cerevisiae, full length, in pET28a, Asp61 to Arg; source: E. coli T7 Express LysY/Iq, purified (HisTrap FF, gel filtration); not shown: His6, N-terminal, kept
B4: Skp1∆1 (Skp1 with residues 65-74 deleted) (natural protein, S. cerevisiae, UniProt P52286 1-194, looked up)
chain: MVTSNVVLVSGEGERFTVDKKIAERSLLLKNYLNDMHDSNLQNNSDSESDSDSETNHKSKDNNNIVMPVPNVRSSVLQKVIEWAEHHRDSNFPDEDDDDSRKSAPVDSWDREFLKVDQEMLYEIILAANYLNIKPLLDAGCKVVAEMIRGRSPEEIRRTFNIVNDFTPEEEAAIRRENEWAEDR
notes: Skp1, S. cerevisiae, in the context of the full-length protein; the LCR (36-64) is retained, residues 65-74 are deleted; also called Skp1Δ1; Skp1d1; source: E. coli, purified (anion exchange, gel filtration)

Tests used:
[1] = biological target: full-length Sgt1 and Sgt1TPR (S. cerevisiae); test: ITC; VP-ITC, 25 °C, 20 mM HEPES pH 7.0, 150 mM NaCl, 1 mM β-mercaptoethanol; 130-160 μM Skp1 injected into 6-13 μM Sgt1 dimer; single site model assuming dimeric Sgt1
[2] = biological target: the molecule itself; test: AUC; sedimentation velocity, 20 °C, absorbance at 280 nm, continuous c(s) fit; Sgt1 at 4.5-22.3 μM monomer (His6-tagged WT and H59A at 11.2 μM)
[3] = biological target: Skp1∆1 (Skp1 with residues 65-74 deleted) (S. cerevisiae, UniProt P52286 1-194, residues 65–74 are deleted); test: ITC
[4] = biological target: the molecule itself; test: native MS; nano-electrospray, samples exchanged into 150 mM ammonium acetate pH 7; 4.5, 11.2 and 22.3 μM; spectra deconvoluted with Amphitrite
[5] = biological target: B2; test: ITC; VP-ITC, 25 °C, 20 mM HEPES pH 7.0, 150 mM NaCl, 1 mM β-mercaptoethanol; 130-160 μM Skp1 injected into 6-13 μM Sgt1 dimer; single site model assuming dimeric Sgt1; settings: both partners purified

Kd [1]: 0.6 to 0.7 µM
Molecule: full-length Skp1 (untagged), Saccharomyces cerevisiae (from UniProt P52286 1-194) (natural protein)

Molecule: B1
stoichiometry N [2]: 3

Molecule: B2
Kd [3]: 3.9 µM | stoichiometry N [2]: 2

Molecule: B3
stoichiometry N [4]: 2

Molecule: B4
binding result [5]: binds
